In paper PMC12781765, “Atypical GNAO1 variants in severe childhood speech disorders: clinical, genetic, and molecular insights” (Molecular Autism, 2025):

Molecular target: T1, GFP-RGS19 (UniProt P49795 1-217)
T1 construct: RGS19, regulator of G protein signaling 19; Plasmid published earlier; also called GFP-tagged RGS19 construct; source: HEK293T, transfected, in lysate
T1 sequence (looked up): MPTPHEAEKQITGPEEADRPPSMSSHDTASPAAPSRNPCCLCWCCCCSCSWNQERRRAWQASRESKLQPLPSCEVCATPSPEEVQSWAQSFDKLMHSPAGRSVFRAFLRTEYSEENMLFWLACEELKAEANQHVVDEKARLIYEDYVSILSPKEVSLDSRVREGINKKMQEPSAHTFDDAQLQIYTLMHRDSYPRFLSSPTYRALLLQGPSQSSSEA
Experiment: co-IP; HEK293T co-transfected with the GFP-tagged construct and non-tagged Gαo variants; IP of the GFP fusion with a recombinant GST-tagged nanobody against GFP; Western blot with antibodies against Gαo and GFP; blots quantified with ImageJ
Details: partners not purified

B1: Gαo L39_G40insV (non-tagged) (natural protein, human, UniProt P09471-1 1-354, looked up)
chain: MGCTLSAEERAALERSKAIEKNLKEDGISAAKDVKLLLLVGAGESGKSTIVKQMKIIHEDGFSGEDVKQYKPVVYSNTIQSLAAIVRAMDTLGIEYGDKERKADAKMVCDVVSRMEDTEPFSAELLSAMMRLWGDSGIQECFNRSREYQLNDSAKYYLDSLDRIGAADYQPTEQDILRTRVKTTGIVETHFTFKNLHFRLFDVGGQRSERKKWIHCFEDVTAIIFCVALSGYDQVLHEDETTNRMHESLMLFDSICNNKFFIDTSIILFLNKKDLFGEKIKKSPLTICFPEYTGPNTYEDAAAYIQAQFESKNRSPNKEIYCHMTCATDTNNIQVVFDAVTDIIIANNLRGCGLY
notes: Gαo (GNAO1) with the patient variant p.Leu39_Gly40insVal (c.116_118dup), introduced by site-directed mutagenesis into the non-tagged Gαo plasmid; De novo patient variant; also called p.Leu39_Gly40insVal; source: HEK293T, transfected (in lysate for co-IP; in cells for BRET)
Question: How did the “percent of the binding of wild-type” value turn out when B1 was run?
Answer: < 15%
